± gives the uncertainty stated by the source.
Experiment: self-splicing fitness, log relative to wild type (ln ratio); higher = more splicing; Tetrahymena group I intron in knt gene, E. coli kanamycin selection, DiMSum; sequences stand for … in CUCUCU…GGAGGGAAAAGUUAUCAGGCAUGCACCUGGUAGCUAGUCUUUAAACCAAUAGAUUGCAUCGGUUUAAAAGGCAAGACCGUCAAAUUGCGGGAAAGGGGUCAACAGCCGUUCAGUACCAAGUCUCAGGGGAAACUUUGAGAUGGCCUUGCAAAGGGUAUGGUAAUAAGCUGACGGACAUGGUCCUAACCACGCAGCCAAGUCCUAAGUCAACAGAUCUUCUGUUGAUAUGGAUGCAGUUCACAGACUAAAUGUCGGUCGGGGAAGAUGUAUUCUUCUCAUAAGAUAUAGUCGGACCUCUCCUUAAUGGGAGCUAGCGGAUGAAGUGAUGCAACACUGGAGCCGCUGGGAACUAAUUUGUAUGCGAAAGUAUAUUGAUUAGUUUUGGAGUACUCGUGGUCG
In short: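 Six replicate transformations of E. coli BL21(DE3) with a pET-22b(+) library were grown overnight at 37°C or 30°C. The library randomised all eight P1ex-region intron nucleotides, the intron lying in the knt kanamycin-resistance gene, and plates were LB agar with or without 25 μg/mL kanamycin plus 100 μg/mL carbenicillin, 50 μM IPTG and 0.2% rhamnose. Pooled colonies were amplicon-sequenced on an Illumina HiSeq 2500, and fitness is the DiMSum error-weighted combination of wild-type-normalised replicate fold changes, kanamycin versus none.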

For CGACAGCAAUAUUACGGAUU, which “self-splicing fitness (ln)” value (30 °C) is on record?
Its value is -3.77 ± 0.17.

What about the “self-splicing fitness (ln)” value (37 °C) of the same sequence?
The value was -1.73 ± 0.099.

For CGACAGCAAUAUUACGGCCC, which “self-splicing fitness (ln)” value (30 °C) is on record?
The value was -0.607 ± 0.19.

What about the “self-splicing fitness (ln)” value (37 °C) of the same sequence?
The value was -0.549 ± 0.24.

For CGACAGCAAUAUUACGGCUA, which “self-splicing fitness (ln)” value (30 °C) is on record?
Its value is -2.5 ± 0.2.

And the “self-splicing fitness (ln)” value (37 °C)?
The value was -1.39 ± 0.14.

With CGACAGCAAUAUUACGGGAU as the sequence, how does the “self-splicing fitness (ln)” value (30 °C) read?
The value was -3.98 ± 0.18.

And the “self-splicing fitness (ln)” value (37 °C)?
The value was -2.52 ± 0.19.

For CGACAGCAAUAUUACGGGCC, which “self-splicing fitness (ln)” value (30 °C) is on record?
Its value is -2.97 ± 0.17.

What about the “self-splicing fitness (ln)” value (37 °C) of the same sequence?
Its value is -2.43 ± 0.23.

Which results are given for CGACAGCAAUAUUACGUCUU?
self-splicing fitness (ln) (30 °C): -0.458 ± 0.066; self-splicing fitness (ln) (37 °C): -0.212 ± 0.073

Which “self-splicing fitness (ln)” value (30 °C) does the source give for CGACAGCAAUAUUACGUGGC here?
Its value is -3.68 ± 0.28.

And the “self-splicing fitness (ln)” value (37 °C)?
The value was -3.29 ± 0.26.

Which “self-splicing fitness (ln)” value (30 °C) does the source give for CGACAGCAAUAUUACGUUUC here?
Its value is -3.98 ± 0.24.

And the “self-splicing fitness (ln)” value (37 °C)?
The value was -2.23 ± 0.15.

Which “self-splicing fitness (ln)” value (30 °C) does the source give for CGAGAGCAAUAUUACGAAAG here?
The value was -3.64 ± 0.4.

And the “self-splicing fitness (ln)” value (37 °C)?
The value was -1.55 ± 0.31.

Which “self-splicing fitness (ln)” value (30 °C) does the source give for CGAGAGCAAUAUUACGACUG here?
The value was -1.29 ± 0.15.

What about the “self-splicing fitness (ln)” value (37 °C) of the same sequence?
Its value is -0.27 ± 0.19.

Which “self-splicing fitness (ln)” value (30 °C) does the source give for CGAGAGCAAUAUUACGAUAA here?
The value was -4.29 ± 0.46.

What about the “self-splicing fitness (ln)” value (37 °C) of the same sequence?
Its value is -2.37 ± 0.45.

For CGAGAGCAAUAUUACGAUUU, which “self-splicing fitness (ln)” value (30 °C) is on record?
Its value is -1.8 ± 0.33.

And the “self-splicing fitness (ln)” value (37 °C)?
Its value is -2.17 ± 0.37.

With CGAGAGCAAUAUUACGCCAA as the sequence, how does the “self-splicing fitness (ln)” value (30 °C) read?
Its value is -1.49 ± 0.2.

And the “self-splicing fitness (ln)” value (37 °C)?
Its value is -1.99 ± 0.38.

With CGAGAGCAAUAUUACGCCGG as the sequence, how does the “self-splicing fitness (ln)” value (30 °C) read?
The value was -2.74 ± 0.41.

And the “self-splicing fitness (ln)” value (37 °C)?
The value was -1.27 ± 0.45.

For CGAGAGCAAUAUUACGCGCU, which “self-splicing fitness (ln)” value (30 °C) is on record?
The value was -2.04 ± 0.38.

Which “self-splicing fitness (ln)” value (37 °C) does the source give for CGAGAGCAAUAUUACGCGGC here?
Its value is -1.9 ± 0.41.

Which “self-splicing fitness (ln)” value (30 °C) does the source give for CGAGAGCAAUAUUACGCUUA here?
The value was -2.49 ± 0.23.

What about the “self-splicing fitness (ln)” value (37 °C) of the same sequence?
The value was -2.13 ± 0.46.

With CGAGAGCAAUAUUACGCUUU as the sequence, how does the “self-splicing fitness (ln)” value (37 °C) read?
Its value is -2.33 ± 0.39.

Which results are given for CGAGAGCAAUAUUACGGAGU?
self-splicing fitness (ln) (30 °C): -4.55 ± 0.42; self-splicing fitness (ln) (37 °C): -1.6 ± 0.2

Which results are given for CGAGAGCAAUAUUACGGGAA?
self-splicing fitness (ln) (30 °C): -1.44 ± 0.33; self-splicing fitness (ln) (37 °C): -1.71 ± 0.44

What does the source list for CGAGAGCAAUAUUACGGUGG?
self-splicing fitness (ln) (30 °C): -1.72 ± 0.34; self-splicing fitness (ln) (37 °C): -2.24 ± 0.34

For CGAGAGCAAUAUUACGGUUU, which “self-splicing fitness (ln)” value (30 °C) is on record?
The value was -3.15 ± 0.15.

What about the “self-splicing fitness (ln)” value (37 °C) of the same sequence?
Its value is -2.58 ± 0.21.

Which results are given for CGAGAGCAAUAUUACGUACG?
self-splicing fitness (ln) (30 °C): -3.14 ± 0.17; self-splicing fitness (ln) (37 °C): -2.28 ± 0.29

Which results are given for CGAGAGCAAUAUUACGUCUG?
self-splicing fitness (ln) (30 °C): -1.33 ± 0.24; self-splicing fitness (ln) (37 °C): -1.31 ± 0.17

For CGAGAGCAAUAUUACGUGAU, which “self-splicing fitness (ln)” value (30 °C) is on record?
Its value is -4.24 ± 0.24.

And the “self-splicing fitness (ln)” value (37 °C)?
Its value is -2.58 ± 0.2.

With CGAGAGCAAUAUUACGUGCU as the sequence, how does the “self-splicing fitness (ln)” value (30 °C) read?
The value was -4.22 ± 0.46.

For CGAUAGCAAUAUUACGAAUG, which “self-splicing fitness (ln)” value (30 °C) is on record?
The value was -0.898 ± 0.082.

What about the “self-splicing fitness (ln)” value (37 °C) of the same sequence?
Its value is 0.443 ± 0.11.

Which “self-splicing fitness (ln)” value (30 °C) does the source give for CGAUAGCAAUAUUACGACAG here?
The value was 0.215 ± 0.1.

And the “self-splicing fitness (ln)” value (37 °C)?
Its value is 0.719 ± 0.12.

For CGAUAGCAAUAUUACGACCC, which “self-splicing fitness (ln)” value (30 °C) is on record?
The value was -2.33 ± 0.44.

What does the source list for CGAUAGCAAUAUUACGAGCU?
self-splicing fitness (ln) (30 °C): -3.42 ± 0.4; self-splicing fitness (ln) (37 °C): -3.09 ± 0.35

Which results are given for CGAUAGCAAUAUUACGAGGG?
self-splicing fitness (ln) (30 °C): -2.4 ± 0.15; self-splicing fitness (ln) (37 °C): -2.14 ± 0.26

For CGAUAGCAAUAUUACGAGUU, which “self-splicing fitness (ln)” value (30 °C) is on record?
Its value is -3.61 ± 0.24.

What about the “self-splicing fitness (ln)” value (37 °C) of the same sequence?
Its value is -2.28 ± 0.23.

For CGAUAGCAAUAUUACGAUUG, which “self-splicing fitness (ln)” value (30 °C) is on record?
The value was -2.27 ± 0.12.

And the “self-splicing fitness (ln)” value (37 °C)?
The value was -1.2 ± 0.12.

What does the source list for CGAUAGCAAUAUUACGCAAA?
self-splicing fitness (ln) (30 °C): -2.98 ± 0.29; self-splicing fitness (ln) (37 °C): -1.92 ± 0.15

What does the source list for CGAUAGCAAUAUUACGCAGU?
self-splicing fitness (ln) (30 °C): -2.96 ± 0.19; self-splicing fitness (ln) (37 °C): -2.48 ± 0.19

Which “self-splicing fitness (ln)” value (30 °C) does the source give for CGAUAGCAAUAUUACGCCUC here?
Its value is -2.84 ± 0.24.

And the “self-splicing fitness (ln)” value (37 °C)?
Its value is -1.74 ± 0.26.

Which results are given for CGAUAGCAAUAUUACGGAAG?
self-splicing fitness (ln) (30 °C): -1.53 ± 0.083; self-splicing fitness (ln) (37 °C): -0.509 ± 0.11

What does the source list for CGAUAGCAAUAUUACGGAGC?
self-splicing fitness (ln) (30 °C): -3.91 ± 0.4; self-splicing fitness (ln) (37 °C): -1.63 ± 0.3

Which “self-splicing fitness (ln)” value (30 °C) does the source give for CGAUAGCAAUAUUACGGCAU here?
The value was -2.85 ± 0.21.

And the “self-splicing fitness (ln)” value (37 °C)?
The value was -2.54 ± 0.26.

With CGAUAGCAAUAUUACGGGGU as the sequence, how does the “self-splicing fitness (ln)” value (30 °C) read?
The value was -3.87 ± 0.19.

And the “self-splicing fitness (ln)” value (37 °C)?
Its value is -3.11 ± 0.32.

Which results are given for CGAUAGCAAUAUUACGGUAG?
self-splicing fitness (ln) (30 °C): -1.41 ± 0.11; self-splicing fitness (ln) (37 °C): -0.461 ± 0.11

Which results are given for CGAUAGCAAUAUUACGUAUG?
self-splicing fitness (ln) (30 °C): -1.22 ± 0.071; self-splicing fitness (ln) (37 °C): -0.164 ± 0.096

What does the source list for CGCAAGCAAUAUUACGAAAC?
self-splicing fitness (ln) (30 °C): -3.46 ± 0.37; self-splicing fitness (ln) (37 °C): -0.979 ± 0.12

What does the source list for CGCAAGCAAUAUUACGAACU?
self-splicing fitness (ln) (30 °C): -0.966 ± 0.065; self-splicing fitness (ln) (37 °C): -0.369 ± 0.076

Which results are given for CGCAAGCAAUAUUACGAAGC?
self-splicing fitness (ln) (30 °C): -2.55 ± 0.13; self-splicing fitness (ln) (37 °C): -3.1 ± 0.19

With CGCAAGCAAUAUUACGACUC as the sequence, how does the “self-splicing fitness (ln)” value (30 °C) read?
The value was -1.3 ± 0.12.

What about the “self-splicing fitness (ln)” value (37 °C) of the same sequence?
The value was -0.869 ± 0.19.

For CGCAAGCAAUAUUACGCAAU, which “self-splicing fitness (ln)” value (30 °C) is on record?
Its value is -2.94 ± 0.21.

What about the “self-splicing fitness (ln)” value (37 °C) of the same sequence?
Its value is -2.14 ± 0.26.

With CGCAAGCAAUAUUACGCAGC as the sequence, how does the “self-splicing fitness (ln)” value (37 °C) read?
Its value is -2.35 ± 0.27.

What does the source list for CGCAAGCAAUAUUACGCCCA?
self-splicing fitness (ln) (30 °C): -0.622 ± 0.17; self-splicing fitness (ln) (37 °C): -0.291 ± 0.16

With CGCAAGCAAUAUUACGCGUG as the sequence, how does the “self-splicing fitness (ln)” value (30 °C) read?
The value was -3.08 ± 0.12.

And the “self-splicing fitness (ln)” value (37 °C)?
Its value is -1.99 ± 0.13.
